Entries after “also recorded” stand apart in the source; their conditions may differ.
What was measured:
Assay type in all cases: cell-based, human
E-cadherin = E-cadherin immunoblot and immunofluorescence
Protocol: FIGS. 5(A-E) illustrate (A) Ephrin-A1 co-stimulation inhibited the loss of E-cadherin induced by HGF/SF. DU-145 cells were treated as indicated for 24 or 48 hours. Cell lysates were subject to anti-E-cadherin immunoblot. Same membrane was stripped and blotted with anti-ERK1 as loading control. Relative intensity of E-cadherin=intensities of E-cadherin band/intensity of ERK band. (B) Immunofluorescent staining of E-cadherin after 24 hours of the indicated treatment. Note almost exclusive cytoplasmic staining pattern in HGF/SF treated cells, while cotreatment with ephrin-A1 restored significant levels of E-cadherin at cell-cell junction. (C) Ephrin-A1-Fc pre-treatment preserved E-cadherin expression in HGF/SF treated cells. DU-145 cells were pre-treated with Fc or ephrin-A1-Fc for 24 hours. HGF/SF was then added. The cells were cultured for another 24 hours and lysed for anti-E-cadherin immunoblot. Anti-ERK1 was used as loading control. (D) Cells grown on cover slips received same treatment as in C were subject to anti-E-cadherin immunofluorescence analysis. Note the significant preservation of E-cadherin localization at cell-cell adhesion site by ephrin-A1-Fc compared with Fc control. (E) Numbers of total cells and cells without contact with other cells were counted in 6-8 randomly chosen fields. * Fc/HGF/SF vs. ephrin-A1-Fc/HGF/SF: p=4.6×10^−7.
Cells were cultured on cover slips in 24-well dishes for 24 hours, fixed in 4% formaldehyde for 20 minutes and permeabilized with 0.5% NP-40 for 10 minutes. Blocking was performed using blocking solution containing 2% BSA and 2% goat serum in PBS. Subsequently, cells were incubated with 1 μg/ml anti-EphA2 or anti-E-cadherin antibody. A Texas Red-conjugated goat anti-rabbit IgG or FITC-conjugated rabbit anti-mouse IgG was used to visualize the primary antibodies. Vector-Shield mounting solution containing DAPI (Vector Laboratories) was used to mount the cover slips onto slides.
Cells cultured in 6 well plates at 70-80% confluence were stimulated with 0.5 μg/ml Fc, 1 μg/ml epnrinA1-Fc or 20 ng/ml HGF/SF or their combinations as indicated. After stimulation, cells were lysed in RIPA buffer (20 mM Tris, pH7.4, 125 mM NaCl, 20 mM NaF, 0.1% SDS, 10% glycerol, 0.5% sodium deoxycholate, and 1% TX-100, 0.5 mM Na3VO4) containing protease inhibitors (1 mM phenylmethylsulphonyl fluoride, and 2 μg/ml each of aprotinin and leupeptin). Cell lysates were clarified by centrifugation at 13,000 rpm for 5 min. Immunoprecipitation was carried out by adding anti-EphA2 antibody to clarified cell lysates and incubated for 1 hour at 4° C. The immunocomplex was captured using γ-bind beads (Pharmacia). Cell lysates or precipitated proteins were separated on 4-20% Tris-glycine gels (Invitrogen) and transferred to Immobilon-P PVDF membranes (Millipore). […] For quantitative analysis, band densities were measured using KODAK 1D imagine analysis software (Eastman Kodak Company).

DU-145 cells [1] = assay: Scattering onto immobilized ligand (SOIL) assay; conditions: 48 hours
Protocol: FIGS. 2(A-E) illustrate EphA activation inhibited DU-145 cell migration. (A) Expression of c-Met is elevated in cell lines derived from more malignant prostate cancer. Total cellular proteins were immunoblotted with anti-human c-Met. An anti-tubulin blot was used as a control for protein loading. (B) In a modified Boyden chamber assay, DU-145 cells were placed in the upper chamber and allowed to migrate to the lower chamber containing indicated reagents. After 8 hours, cells were stained with crystal violet and cells remaining in the upper chamber were removed. Top panel: Cells migrated to the undersides of membrane were counted; six high power fields were counted. Results represent means±S.D. Representative fields were shown in the lower panel. (C) Ephrin-A1-Fc inhibits DU-145 cell migration when HGF/SF was uniformly presented in both sides of membranes. The experiment was carried out as described in A. (D) Inhibition of cell scattering by immobilized ephrin-A1 in a SOIL assay (Method). Ephrin-A1-Fc or control Fc was immobilized on 6-well culture dishes. Freshly confluent DU-145 cells on cover slips were transferred to the coated surfaces. Cells were stimulated with HGF/SF to induce migration off the cover slips to immobilized Fc or ephrin-A1-Fc. […] The wound healing was recorded prior to and 12 hours after the addition of Fc, ephrin-A1-Fc (1 μg/ml) and/or HGF/SF (20 ng/ml). […]

DU-145 cells [2] = assay: Modified Boyden chamber cell migration assay
Protocol: FIGS. 2(A-E) illustrate EphA activation inhibited DU-145 cell migration. (A) Expression of c-Met is elevated in cell lines derived from more malignant prostate cancer. Total cellular proteins were immunoblotted with anti-human c-Met. An anti-tubulin blot was used as a control for protein loading. (B) In a modified Boyden chamber assay, DU-145 cells were placed in the upper chamber and allowed to migrate to the lower chamber containing indicated reagents. After 8 hours, cells were stained with crystal violet and cells remaining in the upper chamber were removed. Top panel: Cells migrated to the undersides of membrane were counted; six high power fields were counted. Results represent means±S.D. Representative fields were shown in the lower panel. (C) Ephrin-A1-Fc inhibits DU-145 cell migration when HGF/SF was uniformly presented in both sides of membranes. The experiment was carried out as described in A. (D) Inhibition of cell scattering by immobilized ephrin-A1 in a SOIL assay (Method). Ephrin-A1-Fc or control Fc was immobilized on 6-well culture dishes. Freshly confluent DU-145 cells on cover slips were transferred to the coated surfaces. Cells were stimulated with HGF/SF to induce migration off the cover slips to immobilized Fc or ephrin-A1-Fc. After 48 hours, cells were fixed and stained with crystal violet. The cells that had migrated to the coated surface were photographed after removing cover slips. (E) DU-145 cells were grown to confluency and a wound was generated by scratching monolayer with a 200 μl pipette tip. The wound healing was recorded prior to and 12 hours after the addition of Fc, ephrin-A1-Fc (1 μg/ml) and/or HGF/SF (20 ng/ml). Representative results from 3 independent experiments are shown.
Modified Boyden chambers of 8 μm pore size (Costar) were used for migration assay. Both sides of the membranes were coated with 10 μg/ml collagen at 4° C. overnight. […] Cells migrated to the underside of the membrane were counted under 200× magnification.

DU-145 cells [3] = assay: MatriGel invasion assay; conditions: 24 hours
Protocol: FIG. 3 illustrates EphA activation inhibited DU-145 cell invasion. DU-145 cells were placed in the upper chamber of MatriGel-coated Transwell. Fc, ephrin-A1-Fc, HGF/SF/Fc or HGF/SF/ephrin-A1-Fc, were added in the lower chamber. After 24 hours, cells invading through MatriGel and migrated to the undersides of membrane were counted. Representative results (mean±S.D.) from three independent experiments are shown.
For invasion assay, the upper chamber was coated with 50 μg of growth factor-reduced MatriGel (BD) according to manufacturer's instructions. The same procedure as in migration assay was followed, except that the cells were allowed 24 hours to migrate to the underside of the membranes.

B1: ephrin-A1-Fc: ephrin-A1 dimerized by fusion to the heavy chain of human IgG1 (protein)
chain: DRHTVFWNSSNPKFRNEDYTIHVQLNDYVDIICPHYEDHSVADAAMEQYILYLVEHEEYQLCQPQSKDQVRWQCNRPSAKHGPEKLSEKFQRFTPFTLGKEFKEGHSYYYISKPIHQHEDRCLRLKVTVSGKITHSPQAHDNPQEKRLAADDPEVRVLHSIGHS
modifications: left off: a dimerising Fc or GST
notes: ephrin-A1 dimerized by fusion to the heavy chain of human IgG1
B1 was tested, and the “total E-cadherin, 24 hours pretreatment before HGF/SF” value (E-cadherin; immunoblot) was “significantly prevented HGF/SF-induced down-regulation of total cellular E-cadherin”, the “total E-cadherin on co-treatment with HGF/SF” value (E-cadherin; immunoblot, 24 or 48 hours) was “significantly preserved” and the “E-cadherin at cell-cell junction, 24 hours pretreatment before HGF/SF” value (E-cadherin; immunofluorescence) was “significant fraction of E-cadherin was retained at cell-cell junction”. For the same molecule, the “E-cadherin at cell-cell junctions on co-treatment with HGF/SF” value (E-cadherin; immunofluorescence) was “dramatically retained”, the E-cadherin expression (E-cadherin; ligand alone vs Fc, immunoblot) was “moderately increased E-cadherin expression; also recorded: increased E-cadherin expression at 48 hours” and the “HGF/SF-induced cell migration off cover slips” value (DU-145 cells [1]) was “significantly reduced”. The “basal cell migration off cover slips” value (DU-145 cells [1]) was “reduced basal levels of cell migration off cover slips”, the “cell migration with HGF/SF on both sides” value (DU-145 cells [2]; HGF/SF both sides, ligand in lower chamber only) was “significantly reduced the number of cells migrated” and the HGF/SF-stimulated cell migration (DU-145 cells [2]; HGF/SF in lower chamber) was “potently inhibited”. For the same molecule, the basal cell migration (DU-145 cells [2]; lower chamber, 1 μg/ml, 8 hours, vs Fc) was “reduced the basal level of cell migration”, the HGF/SF-induced cell invasion (DU-145 cells [3]) was “significantly reduced” and the basal cell invasion (DU-145 cells [3]) was “marginally reduced the basal cell invasion”.

Source: patent US10434074B2, “Peptide and small molecule agonists of EPHA and uses thereof” (CASE WESTERN RESERVE UNIVERSITY, priority 2004, dated 2019)
